Legend:
[1] = target: Venus-PDZ1 (ZO-1) (human) (UniProt Q07157); test: co-IP
[2] = target: biotinylated C-terminal Cx36 peptide, D317A (UniProt O54851); test: pull-down
[3] = target: biotinylated C-terminal Cx36 peptide, D317F (UniProt O54851); test: pull-down

Sequence of UniProt Q07157 (Q07157 whole entry): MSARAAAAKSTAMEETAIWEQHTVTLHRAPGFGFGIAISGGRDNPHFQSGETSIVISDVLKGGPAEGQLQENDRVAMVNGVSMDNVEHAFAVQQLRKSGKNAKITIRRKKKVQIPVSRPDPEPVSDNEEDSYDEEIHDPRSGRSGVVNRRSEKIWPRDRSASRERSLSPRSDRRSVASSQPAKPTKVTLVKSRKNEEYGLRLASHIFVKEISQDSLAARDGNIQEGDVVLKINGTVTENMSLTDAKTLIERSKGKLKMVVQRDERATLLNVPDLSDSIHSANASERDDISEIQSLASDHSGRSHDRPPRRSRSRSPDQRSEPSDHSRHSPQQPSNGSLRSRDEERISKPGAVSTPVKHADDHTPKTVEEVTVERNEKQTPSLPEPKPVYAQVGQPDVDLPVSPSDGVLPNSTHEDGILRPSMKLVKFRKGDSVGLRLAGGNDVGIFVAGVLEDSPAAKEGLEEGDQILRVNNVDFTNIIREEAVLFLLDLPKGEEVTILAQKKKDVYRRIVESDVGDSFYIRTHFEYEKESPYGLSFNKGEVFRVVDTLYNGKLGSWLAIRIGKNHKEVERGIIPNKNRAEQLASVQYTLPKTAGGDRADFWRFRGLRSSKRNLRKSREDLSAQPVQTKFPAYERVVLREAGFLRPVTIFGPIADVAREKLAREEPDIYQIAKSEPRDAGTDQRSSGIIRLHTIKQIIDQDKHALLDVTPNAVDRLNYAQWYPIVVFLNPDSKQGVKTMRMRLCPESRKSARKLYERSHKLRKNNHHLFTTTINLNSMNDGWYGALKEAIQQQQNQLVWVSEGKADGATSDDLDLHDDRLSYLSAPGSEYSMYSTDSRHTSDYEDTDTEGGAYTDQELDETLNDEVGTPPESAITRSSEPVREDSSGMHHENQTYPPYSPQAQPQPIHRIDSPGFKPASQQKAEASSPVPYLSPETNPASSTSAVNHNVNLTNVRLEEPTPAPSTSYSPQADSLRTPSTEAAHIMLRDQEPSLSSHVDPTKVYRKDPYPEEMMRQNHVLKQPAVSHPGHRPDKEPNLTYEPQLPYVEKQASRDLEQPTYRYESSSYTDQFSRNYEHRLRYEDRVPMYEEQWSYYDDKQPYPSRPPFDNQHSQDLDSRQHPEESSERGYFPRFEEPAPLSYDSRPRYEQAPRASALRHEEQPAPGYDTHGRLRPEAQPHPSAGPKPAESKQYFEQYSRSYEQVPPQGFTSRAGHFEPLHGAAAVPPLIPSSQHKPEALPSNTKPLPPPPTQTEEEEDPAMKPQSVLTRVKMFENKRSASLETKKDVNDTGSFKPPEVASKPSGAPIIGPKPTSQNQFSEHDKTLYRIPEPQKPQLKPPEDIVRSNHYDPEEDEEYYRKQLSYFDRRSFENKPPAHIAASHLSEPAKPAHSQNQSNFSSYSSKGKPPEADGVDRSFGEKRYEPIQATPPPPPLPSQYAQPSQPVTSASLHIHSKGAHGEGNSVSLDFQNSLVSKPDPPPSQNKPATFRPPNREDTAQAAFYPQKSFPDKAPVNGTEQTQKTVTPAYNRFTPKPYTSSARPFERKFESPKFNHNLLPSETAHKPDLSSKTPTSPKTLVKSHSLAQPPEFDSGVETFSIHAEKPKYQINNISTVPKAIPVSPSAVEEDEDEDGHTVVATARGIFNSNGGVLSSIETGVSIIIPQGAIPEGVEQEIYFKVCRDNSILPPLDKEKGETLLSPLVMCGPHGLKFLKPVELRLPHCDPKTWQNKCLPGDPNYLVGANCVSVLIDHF

Row | fold increase in binding over wild type Cx36 [1] | fold increase in binding over the wild-type peptide [2] | fold increase in binding over the wild-type peptide [3] | Substance
1 | 5 to 7 times |  |  | Cx36 D317A (from UniProt O54851 1-321) (natural protein)
2 | 5 to 7 times |  |  | Cx36 D317F (from UniProt O54851 1-321) (natural protein)
3 |  | 5 fold | 10 fold | His-Venus-PDZ1 (ZO-1) (domain or fragment)

From publication doi:10.1101/2025.10.27.684941
